Assay results published in patent US20080206268A1.
Blank lines part the entries; values can stand above or below the binder they belong to.

Tests used:
[1] = molecular target: HLA-B60 on HLA typed EBV-LCLs (human); assay: cell-based competition on acid-treated EBV-LCLs against 150 nM fluorescent reference peptide, flow cytometry
[2] = molecular target: HLA-A2 on HLA typed EBV-LCLs (human); assay: as above; details: remark: other sources report otherwise
[3] = molecular target: recombinant HLA-A2.1 protein and b2-microglobulin (human); assay: cell-free competition assay on recombinant HLA-A2.1, against HA-1^H peptide [..] as reference; details: remark: other sources report otherwise
[4] = molecular target: HLA-A3 on HLA typed EBV-LCLs (human); assay: cell-based competition on acid-treated EBV-LCLs against 150 nM fluorescent reference peptide, flow cytometry
[5] = molecular target: HLA-B60 on HLA typed EBV-LCLs (human); assay: cell-based competition assay, flow cytometry
[6] = molecular target: HLA-B60 on HLA typed EBV-LCLs (human); assay: cell-based competition on acid-treated EBV-LCLs against 150 nM fluorescent reference peptide, flow cytometry; remark: listed apart in the source
[7] = molecular target: HLA-B60 on HLA typed EBV-LCLs (human); assay: cell-based competition assay, flow cytometry; remark: listed apart in the source

Binder: KESTLHLVL [HLA-B60 binder-positive control peptide …]
- IC50 [1]: 1.1 µM

Binder: KECVLHDDLL
- IC50 [1]: 1 µM

Binder: VLHDDLLEA [HA-1^H peptide …]
- IC50 [2]: 6.4 µM

Binder: VLRDDLLEA [HA-1^R peptide …]
- fold lower binding affinity than the HA-1^H peptide [3]: 10 fold

More lines, now with the values ahead:

- IC50 [4]: 15.6 µM
Binder: VLHDDLLEAR (modifications not checked)

- IC50 [5]: 1.6 to 5.3 µM
- IC50 [6]: 5.3 µM
Binder: KECVLHDDL (modifications not checked) [nonameric HA-1^H peptide …]

- IC50 [1]: 1.6 µM
- IC50 [7]: 1.6 to 5.3 µM
Binder: KECVLRDDLL [decameric HA-1^R peptide …]
